From paper PMC4807281, “Glutathionylation of the Bacterial Hsp70 Chaperone DnaK Provides a Link between Oxidative Stress and the Heat Shock Response*” (The Journal of Biological Chemistry, 2016)
No end group written: not given here. *: point of attachment. FITC = O=C1OC2(c3ccc(O)cc3Oc3cc(O)ccc32)c2ccc(NC(=S)*)cc21

What was measured:
DnaK, untreated control [1] = target: T1, DnaK, untreated control (E. coli, UniProt P0A6Y8 1-638); experiment: pull-down; 2 μM His6-DnaJ, 5 μM His6-GrpE or 2 μM His6-Smt3-σ^32 with 20 μM DnaK, Buffer B, 1 mM ADP, 8 °C, 60 min; Ni-Sepharose HP; wash 300 mM KCl, 40 mM imidazole; elution 300 mM imidazole; SDS-PAGE, Coomassie; conditions: both partners purified
[2] = target: T2, DnaK, glutathionylated at Cys-15 (E. coli, UniProt P0A6Y8 1-638, S-glutathionylated cysteine at Cys-15); experiment: as above; conditions: both partners purified
T2 construct: DnaK (bacterial Hsp70), E. coli, gene dnaK cloned from genomic DNA of E. coli C41 cells; primers from the start to the stop codon; the single cysteine Cys-15 carries glutathione; Modification reported as complete by Alexa Fluor 350 staining and mass spectrometry; also called glutathionylated DnaK; not shown: His6, N-terminal, cleaved; Smt3, N-terminal, cleaved

DnaK, deglutathionylated [3] = target: T3, DnaK, deglutathionylated (E. coli, UniProt P0A6Y8 1-638); experiment: as above; conditions: both partners purified
T3 construct: DnaK (bacterial Hsp70), E. coli, gene dnaK cloned from genomic DNA of E. coli C41 cells; primers from the start to the stop codon; also called deglutathionylated DnaK; not shown: His6, N-terminal, cleaved; Smt3, N-terminal, cleaved

DnaK, untreated control [4] = target: T1, DnaK, untreated control; experiment: fluorescence polarisation; steady state; 20 nM FITC-…, increasing concentrations of DnaK, Buffer B, room temperature; ATP state; conditions: both partners purified
DnaK, untreated control [5] = target: T1, DnaK, untreated control; experiment: fluorescence polarisation; steady state; 20 nM FITC-…, increasing concentrations of DnaK, 60 min incubation, Buffer B (50 mM Tris-HCl pH 7.5, 100 mM KCl, 5 mM MgCl2), room temperature; apo or ADP state; single site binding model; conditions: both partners purified
[6] = target: T2, DnaK, glutathionylated at Cys-15; experiment: as above; conditions: both partners purified
DnaK, deglutathionylated [7] = target: T3, DnaK, deglutathionylated; experiment: as above; conditions: both partners purified
DnaK, untreated control [8] = target: T1, DnaK, untreated control; experiment: cell-based or functional assay
[9] = target: T2, DnaK, glutathionylated at Cys-15; experiment: cell-based or functional assay

T1 sequence (P0A6Y8 whole entry): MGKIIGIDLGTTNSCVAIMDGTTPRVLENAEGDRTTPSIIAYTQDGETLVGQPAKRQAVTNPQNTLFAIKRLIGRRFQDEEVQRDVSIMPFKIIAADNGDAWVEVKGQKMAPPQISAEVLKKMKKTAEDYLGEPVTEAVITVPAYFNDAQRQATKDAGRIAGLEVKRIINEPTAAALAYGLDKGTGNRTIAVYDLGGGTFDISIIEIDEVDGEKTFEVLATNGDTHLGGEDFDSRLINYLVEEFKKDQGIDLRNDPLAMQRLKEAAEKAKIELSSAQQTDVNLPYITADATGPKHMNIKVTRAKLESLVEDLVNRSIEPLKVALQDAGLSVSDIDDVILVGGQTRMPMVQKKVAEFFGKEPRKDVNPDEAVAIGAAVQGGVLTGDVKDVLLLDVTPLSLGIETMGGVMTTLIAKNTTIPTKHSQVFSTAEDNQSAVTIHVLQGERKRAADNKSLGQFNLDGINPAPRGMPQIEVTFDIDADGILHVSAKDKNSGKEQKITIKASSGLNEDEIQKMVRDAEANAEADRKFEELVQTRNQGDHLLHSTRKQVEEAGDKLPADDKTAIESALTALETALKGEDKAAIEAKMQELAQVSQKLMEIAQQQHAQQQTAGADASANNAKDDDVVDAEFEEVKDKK
T3 sequence (P0A6Y8 whole entry): as above
T2 sequence (P0A6Y8 whole entry): as above

binding result (DnaK, untreated control [1]) | binding result [2] | binding result (DnaK, deglutathionylated [3]) | Binder | also measured
binds | binds | binds | His6-Smt3-σ^32 (natural protein, E. coli, UniProt P0AGB3 1-284, looked up, σ^32 subunit of RNA polymerase (heat shock sigma factor), E. coli, gene rpoH cloned from genomic DNA of E. coli C41 cells; primers from the start to the stop codon; The His6-Smt3 tag (pET28a-SMT3) was not cleaved from σ^32; order of the tags from the printed label; also called heat shock transcription factor σ^32; not shown: His6, N-terminal, kept; Smt3, N-terminal, kept) MTDKMQSLALAPVGNLDSYIRAANAWPMLSADEERALAEKLHYHGDLEAAKTLILSHLRFVVHIARNYAGYGLPQADLIQEGNIGLMKAVRRFNPEVGVRLVSFAVHWIKAEIHEYVLRNWRIVKVATTKAQRKLFFNLRKTKQRLGWFNQDEVEMVARELGVTSKDVREMESRMAAQDMTFDLSSDDDSDSQPMAPVLYLQDKSSNFADGIEDDNWEEQAANRLTDAMQGLDERSQDIIRARWLDEDNKSTLQELADRYGVSAERVRQLEKNAMKKLRAAIEA | –
binds | binds | binds | His6-GrpE (natural protein, E. coli, UniProt P09372 1-197, looked up, GrpE (nucleotide exchange factor of DnaK), E. coli, gene grpE cloned from genomic DNA of E. coli C41 cells; primers from the start to the stop codon; Uncleavable His6 tag from the mini pRSETa plasmid; not shown: His6, N-terminal, kept) MSSKEQKTPEGQAPEEIIMDQHEEIEAVEPEASAEQVDPRDEKVANLEAQLAEAQTRERDGILRVKAEMENLRRRTELDIEKAHKFALEKFINELLPVIDSLDRALEVADKANPDMSAMVEGIELTLKSMLDVVRKFGVEVIAETNVPLDPNVHQAIAMVESDDVAPGNVLGIMQKGYTLNGRTIRAAMVTVAKAKA | –
– | – | – | {FITC}-ALLLSAPRR (also called FAR) [FITC-ALLLSAPRR peptide] | Kd (DnaK, untreated control [4]): ≥ 10 µM; Kd (DnaK, untreated control [5]): 0.2 to 0.5 µM; Kd [6]: 4 to 6 µM; Kd (DnaK, deglutathionylated [7]): 0.2 to 0.5 µM
– | – | – | His6-DnaJ (natural protein, E. coli, UniProt P08622 1-376, looked up) MAKQDYYEILGVSKTAEEREIRKAYKRLAMKYHPDRNQGDKEAEAKFKEIKEAYEVLTDSQKRAAYDQYGHAAFEQGGMGGGGFGGGADFSDIFGDVFGDIFGGGRGRQRAARGADLRYNMELTLEEAVRGVTKEIRIPTLEECDVCHGSGAKPGTQPQTCPTCHGSGQVQMRQGFFAVQQTCPHCQGRGTLIKDPCNKCHGHGRVERSKTLSVKIPAGVDTGDRIRLAGEGEAGEHGAPAGDLYVQVQVKQHPIFEREGNNLYCEVPINFAMAALGGEIEVPTLDGRVKLKVPGETQTGKLFRMRGKGVKSVRGGAQGDLLCRVVVETPVGLNERQKQLLQELQESFGGPTGEHNSPRSKSFFDGVKKFFDDLTR | acceleration of ATP turnover of DnaK by DnaJ, malachite green ATPase assay, DnaJ to DnaK ratio 2:1 (DnaK, untreated control [8]): 6 fold; acceleration of ATP turnover of DnaK by DnaJ, malachite green ATPase assay, DnaJ to DnaK ratio 2:1 [9]: 2 fold
